# ± gives the uncertainty stated by the source.
# B1: Tumor protein 63, residues 545 to 610; numbered along this chain, Q9H3D4 (parent)
# chain: TDCSIVSFLARLGCSSCLDYFTTQGLTTIYQIEHYSMDDLASLKIPEQFRHAIWKGILDHRQLHEF
# Variants of: B1
# Experiment: abundance fitness (aPCA) (normalised: wild type 0, dead -1); higher = more abundant; growth selection in yeast, the domain comes from the species named
# Conditions: Homo sapiens
row,Variant,abundance fitness
1,TDCSIVSFLARLGCSSCLDYFTTQGLTTIYQIEHYSTDDLASLKIPEQFRHAIWKGILDHRQLHEF [M37T],-0.076 ± 0.029
2,TDCSIVSFLARLGCSSCADYFTTQGLTTIYQIEHYSMDDLASLKIPEQFRHAIWKGILDHRQLHEF [L18A],-0.008 ± 0.037
3,TDCSIVSFLARLSCSSCLDYFTTQGLTTIYQIEHYSMDDLASLKIPEQFRHAIWKGILDHRQLHEF [G13S],-0.076 ± 0.027
4,TDCSICSFLARLGCSSCLDYFTTQGLTTIYQIEHYSMDDLASLKIPEQFRHAIWKGILDHRQLHEF [V6C],-0.111 ± 0.035
5,TDCSIVSFLARLGCSSCLDYFTTQGLTTIYQIEHMSMDDLASLKIPEQFRHAIWKGILDHRQLHEF [Y35M],0.03 ± 0.022
6,TDCSIVSFLARLGCSSCLDYFTTQGLTTIYQIEHYGMDDLASLKIPEQFRHAIWKGILDHRQLHEF [S36G],-0.028 ± 0.018
7,TDCSIVSFLARLGCSSCLMYFTTQGLTTIYQIEHYSMDDLASLKIPEQFRHAIWKGILDHRQLHEF [D19M],-0.086 ± 0.034
8,TDCSIVSFLARLGNSSCLDYFTTQGLTTIYQIEHYSMDDLASLKIPEQFRHAIWKGILDHRQLHEF [C14N],-0.34 ± 0.037
9,TDCSIVSFLARLGCSSCLDYFTTQGLTTIYQIEHYSMDDLASLKIPEQFRHAIWKGILDHRQLEEF [H64E],0.034 ± 0.025
10,TDCSIVSFLARLGCSSCLDYFTTQGLTTIYQIKHYSMDDLASLKIPEQFRHAIWKGILDHRQLHEF [E33K],-0.112 ± 0.039
11,TDCSIVNFLARLGCSSCLDYFTTQGLTTIYQIEHYSMDDLASLKIPEQFRHAIWKGILDHRQLHEF [S7N],-0.006 ± 0.032
12,TDCSIVSFLARLGCSSCLDYFTTQGLTTIYQIEHYSMDDLQSLKIPEQFRHAIWKGILDHRQLHEF [A41Q],-0.008 ± 0.033
13,TDCSIVSFLARLGCSSCLDYFTTQGLTTIYQIEHYSMTDLASLKIPEQFRHAIWKGILDHRQLHEF [D38T],-0.033 ± 0.03
14,TDCSIVSFQARLGCSSCLDYFTTQGLTTIYQIEHYSMDDLASLKIPEQFRHAIWKGILDHRQLHEF [L9Q],-1.03 ± 0.11
15,TDCSIVSFLARLGCSSCLDYFTTQGLTTIYQIEHYSMDDLASLKIPEQFRHAIWKGWLDHRQLHEF [I57W],-0.895 ± 0.1
16,TDCSIVSFLARLGCSSCLDYFTTQGLTTIYQIEHYSMDDLASLKIPEQFRHAIWKGILDHRQLWEF [H64W],-0.075 ± 0.04
17,TDCSIVSFLARLGCSSCLDYFTTQGLTTIYQHEHYSMDDLASLKIPEQFRHAIWKGILDHRQLHEF [I32H],-0.876 ± 0.24
18,TDCSIVWFLARLGCSSCLDYFTTQGLTTIYQIEHYSMDDLASLKIPEQFRHAIWKGILDHRQLHEF [S7W],-0.132 ± 0.027
19,TDCSIVSFLARLGCSSCLDYFTTQGLVTIYQIEHYSMDDLASLKIPEQFRHAIWKGILDHRQLHEF [T27V],-0.044 ± 0.022
20,TDCSIVSFAARLGCSSCLDYFTTQGLTTIYQIEHYSMDDLASLKIPEQFRHAIWKGILDHRQLHEF [L9A],-1 ± 0.093
21,TDCSIVSFLARLGCSSCLDYFTTQGLTTIYQIEHYSMDDLASLKIPEQFRHTIWKGILDHRQLHEF [A52T],-0.037 ± 0.033

row,Variant,abundance fitness
1,TDCSIVSFLARLGCSSCLDYFTTQGLTTIYQIEHYSMDDLASLKIPEQFRHAIWKGFLDHRQLHEF [I57F],-0.203 ± 0.04
2,TDCSIESFLARLGCSSCLDYFTTQGLTTIYQIEHYSMDDLASLKIPEQFRHAIWKGILDHRQLHEF [V6E],-0.067 ± 0.045
3,TDCSIVSFLARLGMSSCLDYFTTQGLTTIYQIEHYSMDDLASLKIPEQFRHAIWKGILDHRQLHEF [C14M],-0.014 ± 0.067
4,TDCSIVSFLARLGCSSCLDYFTTQGLTTIYQIEHYSMDDLASLKIPEQFRHAEWKGILDHRQLHEF [I53E],-0.893 ± 0.063
5,TDCSIVSFLARLGCSSCLDYFTTQGLTTIYQIEHYSMDDLASLKIPEQFRHAIWKVILDHRQLHEF [G56V],-0.676 ± 0.041
6,TNCSIVSFLARLGCSSCLDYFTTQGLTTIYQIEHYSMDDLASLKIPEQFRHAIWKGILDHRQLHEF [D2N],-0.053 ± 0.03
7,TDCSIVSFLARLGCSSCLDYFTTQGLTTIYQIEHSSMDDLASLKIPEQFRHAIWKGILDHRQLHEF [Y35S],-0.251 ± 0.023
8,TDCSIVSFLARLGCSSCLDYFTTQGLTTIYQIEHYSMDDLASLKIPEQFRHAIWKGILDHRSLHEF [Q62S],-0.025 ± 0.025
9,TDCSIVSFLARLGCSSCLDYFTTQGLTTIYQIEHYSMDDLASLKIPEYFRHAIWKGILDHRQLHEF [Q48Y],-0.078 ± 0.043
10,TDCSIVSFLARLGCSSCLDYFTTQGLTTIRQIEHYSMDDLASLKIPEQFRHAIWKGILDHRQLHEF [Y30R],0.008 ± 0.024
11,TDCSIVSFLARLGCSSCLDYFTTQGLTTIYQIEHYSMDDLASLKIPEQFRHAIWKGILDHRKLHEF [Q62K],-0.021 ± 0.032
12,TDCSIVSFLARLGCSSCLDYFTTQGLTTIYQIEHYSMDDLASLKIPEQFRHANWKGILDHRQLHEF [I53N],-0.783 ± 0.1
13,TDCSIVSFLARLGCSSCLDYFTTDGLTTIYQIEHYSMDDLASLKIPEQFRHAIWKGILDHRQLHEF [Q24D],-0.152 ± 0.036
14,TDCSIVSFLARLGCVSCLDYFTTQGLTTIYQIEHYSMDDLASLKIPEQFRHAIWKGILDHRQLHEF [S15V],-0.077 ± 0.031
15,TDCSIVSFLARLGCSSCLIYFTTQGLTTIYQIEHYSMDDLASLKIPEQFRHAIWKGILDHRQLHEF [D19I],-0.067 ± 0.036
16,TDCSIVSFLARLGCSSCLDYTTTQGLTTIYQIEHYSMDDLASLKIPEQFRHAIWKGILDHRQLHEF [F21T],-1.13 ± 0.13
17,TDCSIVSFLARLGCSSCLDYFTTQGLTTIYQIEHYSMDDLAALKIPEQFRHAIWKGILDHRQLHEF [S42A],-0.019 ± 0.029
18,TDCSIVSFLARLGCSSCLDYFTTQGLTTIYQIEHYSMDDLASLKIPEQFSHAIWKGILDHRQLHEF [R50S],-0.102 ± 0.025
19,TDCSIVSFLARLGCSSCLDYFTTQGLTTIYQIEHYSMDDLASLKIPEQFRHAIWKGILDHRRLHEF [Q62R],0.006 ± 0.02
20,TDCSIVSFLARLGCSSCLDYFTTQGLTTIYQIEHYSMDDLAGLKIPEQFRHAIWKGILDHRQLHEF [S42G],0.051 ± 0.03

# — the Human Domainome abundance scans (Beltran et al. 2025)
